A short description of the data set: soluble on expression in E. coli; label from the status in PepcDB or PDB records.
“MRTAEIREKFLSFFEGKGHLRLPSFSLIPEDDPSLLFTSAGMAPLKPYFLGAKPIFGGREWRRVTTCQECLRVGDIENVGRTSRHNTYFEMLGNFSFGDYFKKEAILWAWEFLTEHLKLDPGRLWVTVFEDDDEAYEIWRDLVGVPEERIGRFGEDENYWPGGAITHGPNGPSGPCSEIFYDRGPAYGTPDETGPNTGSGDRFVEIWNLVFTQYDRQGPIPGPGILKPLPQKNIDTGMGLYRVAAILQDVEDFYRTDTFFPIIQEVARMSGRPYEGKTSVSHRVIADHVRAVVAALSDGATFSNTGRGYVIRRLLRRALRHGYLLGLSDPFLHRLAPLVAELLGDFYPEMRENLPAVEKQIRLEEERFLETLEGGLKRLDALLSGLKPGEVLPGKEAFRLYDTYGFPLDLTVEIAAERGYGVDTEGFQKAMEEQQSRSRAAMAFEREIFKKGAQVLEELYAERGATEFLGYNALEAEAEVLALLAGDQSLLEAGPGTEVQVVLDKTPFYAEGGGQIGDFGLLEWPGGRARVETTRKTERGIFLHKARVEEGVLRVGERVRAVVDPRRRDTERNHTATHLLHAALRAVLGPHVRQAGSLVAPDRLRFDFTHPEPLKPEELERVELLVNRWIMADFPVTWRYMPLEEARKEGAMALFGEKYGEVVRVVRVEGSPLEGLESKELCGGCHVRRTGEIGAFLIRSEEAVSAGVRRIEAVTGEEAIRFARGSLNRLKALAERLEVGEAALEERLEKLLAELKEKEREVESLKARLVQAALGGGGGASLEEKGGLRWTVAELPGLDAKALRQAADDLVARGADVALVLSGGQAVLKLSPKAQGMGLEAGALFRALAEKAGGRGGGKGALAQGGGLDPRKAREALPGLLP”: the “soluble on expression in E. coli” value is on record as “soluble”. Take “MGKLNRRDVIKGLGMAAASLAAAQRGLQARAAPSRIVWSPYVVFLNANAKAFIVDTRTDQVVASLDTARGATLGSMTPDAKKVYVSGAGEGETRVVILDLENLRVAKVLETGNRPKHGLVSPDGRRVGVDHWALSGGKLRLTFIRTEDDTIEKVLDIPVTNQPKGVTSMHNAWSWDSRYFFSVDRVDDRLVVVDTADWSVRTFSAPSVPHYPVVSPDGKELWLVHEGNDRVRPGIAVYDLTRPDLPIVAQVEMPLIGEDAVEAHHGNFTQDGRYFMALNRGPGNNLRGREVAFFSPRTKRLVHRLTCASTGVGHAYNSPDGRRVIATNYGNNVITVIDLLGLRTLKDLVIGKGRMGHVVFTPDGRFAYLSNADGNLYKLDMRSLTVVKVIETGQTNGGGQVLNVWTNVFEELPRG”: the “soluble on expression in E. coli” value is recorded as “soluble”. As for “MGSDKIHHHHHHMTYPVVLVNVSRNTNAISFPMGLSVVANALLHHDITPQIIDLIPVMPDQRIDYFLRTMPKEPAIYGFSMMIGNFHLDHAEHYARLIKEHSPDSIVVYGGSLPSSVPELLVENCECDFVIHGEGEVVFPAFVKALREGESFPEGPGIFYKGADGQVVGTKAKRMRRLDHLSRQNYSLFDMDFYSGYFKEVGLSWEIMASRGCKAHCSFCYKFMGDGIGLREVGEVLDEIQYIMENYGITKFYFVDENFMQIKKYFYSFLEEKKNRGLNFTFIASSRIDEIDEERISIAKEHGLTALTTGVESVNQATLNAIDKRIDIEDAERAVKLLRQYGIRPHVNLIIGFEWESEDDYKAMLEFIERNDLRGTVKLSYLTPLPATRLYEDAKSRNKLGKPEFEYVRTLGNLYWELMVNMTNMPDELLKHYYALISDVGKETRALPVTPAYRQNLNDDLVMYKTVAAPSPPPAHAAWSLP”, the entry is “not soluble”; as for “MSLKHLGQTRSALHGSHAVITPETFVRTALAEWPGSAIVLHIAPVVGLGARFVQFTAEMPAGAQATESVYQRFAFVLSGEVDVAVGGETRTLREYDYVYLPAGEKHMLTAKTDARVSVFEKPYQTVEGVQAPGVYWGNERENPGYPFEGDDHLIARKLLPDEPAFDFMVSTMSFAPGASLPYAEVHYMEHGLLMLEGEGLYKLEENYYPVTAGDIIWMGAHCPQWYGALGRNWSKYLLYKDMNRHPLEGGSHHHHHH”, “soluble”. For “MAVSPDDPLILVGRVAGGFGVRGEVRITTYTEDPLSIAGFKALKRQDGSPALTIASARKTKDGVVCRCPGVETKEAADALRGLRLYVPRSALPEPDDDEFYLTDLVGLTVRHIQTDQLLGRVKSVQNFGAGDILEITPDLGGPTWYLPFTRAAVPEVRVSEGLILADPPALVGDHEGPEEKGLDENEELGDRDAAALEHHHHHH”, the “soluble on expression in E. coli” value is listed as “not soluble”. For the sequence “MKLPKEGDFITIQSYKHDGRLHRTWRDTMVLKTTENAVIGVNDHTLVTEADGRRWVTREPAIVYFHKKYWFNIIAMIRDNGISYYCNLASPYVLDQEALKYIDYDLDVKVFADGEKKLLDVDEYEIHKKEMHYSPDIDYILKEHVKILVDWINNGKGPFSQSYVNIWYKRYLELRNR”, the “soluble on expression in E. coli” value was “not soluble”.

The values are drawn from the DeepSol protein solubility set.
